A short description of the data set: yeast display, Sf9 membrane polyspecificity reagent, FACS + sequencing; frameworks hold sequencing errors. In outline:
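Sorting gates, low and high (top ~1%), were placed on anti-HA fluorescence to track expression and on streptavidin fluorescence to track reagent binding. A clone's polyreactivity label is taken from the gate it came out of. The reagent was 10% biotinylated, detergent-solubilized Sf9 membrane, applied for 1 hour at 4 °C to galactose-induced yeast display cells.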
For “QVQLVESGGGLVQAGGSLRLSCAASGRTFYYYDMGWYRQAPGKERELVAAIRRSGGSTYYADSVKGRFTISRDNAKNTVYLQMNSLKPEDTAVYYCAAGRRYSGSYDYRGQGTQVTVSS”, the “polyreactivity (PSR sort gate)” value is on record as “high polyreactivity”.
Then “QVQLVESGGGLVQAGGSLRLSCAASGRTFYYYTMGWYRQAPGKDRELVAAIRGSGGSTYYADSVKGRFTISRDNAKNTVYLQMNSLKPEVTAVYYCNATRRRSARYGYISAYDYWGQGTQVTVSS”, with “high polyreactivity”; and “QVQLVESGGGLVQAGGSLRLSCAASGRTFYYYTMGWYRQAPGKERELVAANTWNGGSTYYADSVKGRFTISRDNAKNTVYLQMNSLKPEDPAVYYCNARWTWRYDYWGQGTQVTVSS”, with “high polyreactivity”; and “QVQLVESGGGLVQAGGSLRLSCAASGRTFYYYVMGWYRQAPGKERELVAGITWSGGGTYYADSVKGRFTISRYNAKNTVYLQMNRLKPEDTAVYYCAKKDTLSNRWYGYWGEGTQVTVSS”, with “high polyreactivity”.
In the case of “QVQLVESGGGLVQAGGSLRLSCAASGRTFYYYYTMGWYRQAPGKERELVAAISRSGSTNYADSVKGRFTISRDNAKNTVYLQMNSLKPEDTAVYYCARSYRSDGSRFGYWGQGTQVTVSS” it was “low polyreactivity”; in that of “QVQLVESGGGLVQAGGSLRLSCAASGRTGYMGWYRQAPGKERELVAAITSRGGSTYYADSVKGRFTISRDNAKNTVYLQMNSLKPEDTAVYYCAAPAYHKRTSRGDYWGQGTQVTVSS”, “low polyreactivity”; in that of “QVQLVESGGGLVQAGGSLRLSCAASGRTIAPYAMGSYRQAPGKERELVAAITYSGGSTYYADSVKGRFTISRDNAKNTVYLQMNSLKPEDTAVYYCAVDTTTSYTVEYDYWGQGTQVTVSS”, “low polyreactivity”.
Then “QVQLVESGGGLVQAGGSLRLSCAASGRTIASYTMGWYRPAPGKERDLVAAISKSGGSTYYADSVKGRFTISRDNSKNTVYLQMNSLKPEDTAVYYCNAVGARVASATGMEYWGQGTQVTVSS”, with “high polyreactivity”.
For “QVQLVESGGGLVQAGGSLRLSCAASGRTIDRNAMGWYRQPPGKERELVAAISGSGGRTYYADSVKGRFTISRDNEKNSVYLQMNSLKPEDTAVYYCAARVGSSPSKSKYDYWGQGTQVTVSS”, the “polyreactivity (PSR sort gate)” value is “high polyreactivity”.
In the case of “QVQLVESGGGLVQAGGSLRLSCAASGRTIDSNAMGWYRQAPGKERELVATIDRGGSTNYADSVKGRFTISRDNAKNTVYLQMNSLKPEDTAVYYCATRGHYHAFYYTYPRYDSWGQGTQVTVSS” it was “low polyreactivity”; in that of “QVQLVESGGGLVQAGGSLRLSCAASGRTIDYNGMGSYRQAPGKERELVAVISSSGGSTFYADSVKGRFTISRDNAKNTVYLQMNSLKPVDTAVYYCAADFIVAYTLHGSYDYWGQGTQVTVSS”, “low polyreactivity”; in that of “QVQLVESGGGLVQAGGSLRLSCAASGRTIGGNAMGRYRQAPGKERELVAAISWSGGRTYYADSVKGRFTISRDNAKNTVYLQMNSLKPEDTAVYYCNKVGYGFHGDYDYWGQGTQVTVSS”, “high polyreactivity”.
In the case of “QVQLVESGGGLVQAGGSLRLSCAASGRTIGIYAMGLYRQAPGKERELVAAITWSGDSTYYADSVKGRFTISRDNAKNTVYLQMNSLKPEDTAVYYCAAYYLYRYQTMGYWGQGTLVTVSS” it was “low polyreactivity”; in that of “QVQLVESGGGLVQAGGSLRLSCAASGRTIGLYGMGWYRQAPGKEREFDAAITRRGGSTYYADSVKGRFTISRDHAKNTVYLQMNSLKPEDTADYYCAAGYSSRYRGGLDYWGQGTQVTVSS”, “high polyreactivity”.
With “QVQLVESGGGLVQAGGSLRLSCAASGRTIGVYAMGWYRQAPGKERELVAAISWSGGTTYYADSVKGRFTISRDNAKNTVYLQMNSLKPEDTAVYYCDADSYTEVDYWGQGTQVTVSS”, the “polyreactivity (PSR sort gate)” value was “low polyreactivity”.
On to “QVQLVESGGGLVQAGGSLRLSCAASGRTIGYNAMGWYRQAPGKERELVAAITRSAGITYYADSVKGRFTISRDNAKNTVYLQLNSLKPEDTAVYYCNKRVVYRSSLFDYWGQGTQVTVSS”, for which the “polyreactivity (PSR sort gate)” value is on record as “low polyreactivity”.
Then “QVQLVESGGGLVQAGGSLRLSCAASGRTINGNTMGWYRQAPGKERELVAVIDWSGGSTYYADSVKGRFTISRDTAKNTVYLQMNSLKPEDTAVYFCATVSGYAYYYWGQGTQVTVSS”, with “low polyreactivity”; and “QVQLVESGGGLVQAGGSLRLSCAASGRTIPFYAMGWYRQAPGKERELVAAISSSAGRTYYADSVKGRFSISRDNAKNTVYLQLNSLKPEDTAVYYCAARLYCRYRYDYWGQGTQVTVSS”, with “low polyreactivity”.
Then “QVQLVESGGGLVQAGGSLRLSCAASGRTIPHNAMGWYRQAPGKERQLVATITAGSGSTYYADSVKGRFTISRDNAKNTVSLQLNSLKPEDTAVYYCNAKWTLYQSDYWYYIYDYWGQGTQVTVSS”, with “low polyreactivity”.
Then “QVQLVESGGGLVQAGGSLRLSCAASGRTIQTYAMGWYRQAPRKERELVAAITSSGGSTYYADSVKGRFTISRDNAKNTVYLQMNSLIPEDSAVYYWSAYRRIRVGVPVRTYYYWGQGTQVTVSS”, with “high polyreactivity”; and “QVQLVESGGGLVQAGGSLRLSCAASGRTIQYNAMGWYRQAPGKERQLVAAISSSGGSTYYADSVKGRFTISRDNAKNTVYLQMNSLKPEDTAVYYCNAYSQSWNFYGDGDYWGQGTQVTVSS”, with “low polyreactivity”.
As to “QVQLVESGGGLVQAGGSLRLSCAASGRTIRAYTMGWYRQAPGNERELVAAISTPGGSTYYADSVKGRFTISRDNAKNTVYLQLNSLKPEDTAVYYCAADYGGPITGYEYWGQGTQVTVSS”, the “polyreactivity (PSR sort gate)” value was “low polyreactivity”.
On to “QVQLVESGGGLVQAGGSLRLSCAASGRTIRVYAMGWYRQAPGKERELVARINFRGGSTRYADSVKGRFTISRDNAKNTVYLQMNSLKPEDTAVYYCAARPSSFYYSNGFDYWGQGTQVTVSS”, for which the “polyreactivity (PSR sort gate)” value is reported as “high polyreactivity”.
Then “QVQLVESGGGLVQAGGSLRLSCAASGRTIRYNALGWYREARGKERELVASIRRGGSTNYADSVKGRCTISRDNAKNPVYLHMNSLKPEDTAVSYCAAAGGGVRKVWGGSRYGYWGQGTQVTVSS”, with “high polyreactivity”.
Then “QVQLVESGGGLVQAGGSLRLSCAASGRTIRYYAMGWYRQAPGKERELVAAITSGGSTYYADSVKGRFTISRDNAKNTVYLQMNSLKPEDTAVYYCAAARYEPFIYDYGYWGQGTQVTVSS”, with “low polyreactivity”.
Then “QVQLVESGGGLVQAGGSLRLSCAASGRTIRYYTMGWYRQAPGKERELVATIRRGRTTYYADSVKGRFTISRDNEKNTVYLQMYSLKPEDTAVYYCAADFPSAEVDYWGQGTQVTVSS”, with “low polyreactivity”.
Consider “QVQLVESGGGLVQAGGSLRLSCAASGRTIVYNAMGWYRQAPGKERELVAAITSRGGSTHYADSVKGRFTISRDNAKNTVYLQMNSLKPEDTAVYYCAADFLSPAYRPSWYRFDYWGQGTQVTVSS”, for which the “polyreactivity (PSR sort gate)” value is reported as “low polyreactivity”.
Then “QVQLVESGGGLVQAGGSLRLSCAASGRTIWWYAMGWYRQAPGKERELVADITWIGGSTYYADSVKGRFTISRDNAKNTVYLQMNSLKPEDTAVYYCATDKDDVSDLGKDYAYFEYDYWGQGTQVTVSS”, with “low polyreactivity”; and “QVQLVESGGGLVQAGGSLRLSCAASGRTIWYNAMGWYRQAPGKERELVAVISSGAITYYADSVKGRFTFSRDNGKNTVYLQMNSLKPEDTAFYYCAARSYLSLIDYWGQGTQVNVSS”, with “high polyreactivity”.
In the case of “QVQLVESGGGLVQAGGSLRLSCAASGRTIYQNAMGWYRQAPGKEREFVAAITGGTGSTHYADSVKGRFTISRDNAKITVYLQMNSLKPEDSAVYYCATRYLFGFSRYDYWGQGTQVTVSS” it was “low polyreactivity”; in that of “QVQLVESGGGLVQAGGSLRLSCAASGRTIYRYGMGWYRQAPGKERELVADITWRGDSTYYADSVKGRFTISRDNAKNTVYLQMNCLKPEDTAVYYCATRPRGYRWGKLYDYWGQGTQVTVSS”, “high polyreactivity”; in that of “QVQLVESGGGLVQAGGSLRLSCAASGRTIYTYAMGWYRQAPGKERELVAAITKRGGSTYYADSVKGRFTISRDNAQNTVYLQMNSLKPEDTAVYYCNKELATARGQSLYRTYSGYGYWGQGTQVTVSS”, “high polyreactivity”.
Then “QVQLVESGGGLVQAGGSLRLSCAASGRTIYYYAMGLYRQAPGKERELVAAISSSGSTTYYADSVKGRFTISRDNAKNTVYLQMNSLKPEDTAVYYCAASYVYRVDDDYWGLGTQVTVSS”, with “low polyreactivity”.
As to “QVQLVESGGGLVQAGGSLRLSCAASGRTIYYYAMGWYRQAPGKEREFVAAISWHGGSTYYADSVKGRFTISRDNAKNNVYLQMNSLKPEDTAVYYCAADIYLRGFHYDYWGQGTQVTVSS”, the “polyreactivity (PSR sort gate)” value is recorded as “low polyreactivity”.
Then “QVQLVESGGGLVQAGGSLRLSCAASGRTIYYYAMGWYRQAPGKEREFVAAISWHGGSTYYADSVKGRFTISRDNAKNTVYLQMNSLKPEDTAVYYCAAERYDRVGFDYWGQGTQVTVSS”, with “low polyreactivity”; and “QVQLVESGGGLVQAGGSLRLSCAASGRTLAENAMGWYRQAPGKERELVAAISSIGGRTYYADSVKGRFTISRDNAKNTVYLQMNSLKPEDTAVYYCAATLRTKSARYNYWGQGTQVTVSS”, with “high polyreactivity”; and “QVQLVESGGGLVQAGGSLRLSCAASGRTLATYAMGWYRQAPGKERELVAAISTSGTRTYYADSVKGRFTISRDNAKNTVYLQMNSLKPEDTAVYYCNAGPGYDYWGHGTQVTVSS”, with “high polyreactivity”.
In the case of “QVQLVESGGGLVQAGGSLRLSCAASGRTLDVYAMGWSRQAPGKERELVASITSSGARTYYADSVKGRFTISRDNAKNTVYLQMNSLKPEDTAVYYCAARVYRYSASRAYDYWGQGSQVTVSS” it was “high polyreactivity”; in that of “QVQLVESGGGLVQAGGSLRLSCAASGRTLENYAMGWSRQAPGKERELVATINGRSGNTYYADSVKGRFTLSRDNAKNTVYLQMNSLKPEDTAVYYCNAYYEGYYTVGYDYWGQGTQVTVSS”, “high polyreactivity”; in that of “QVQLVESGGGLVQAGGSLRLSCAASGRTLGFYAMGWYRQAPGKEREFVAAISSSVGRTYYADSVKGRFTISRDNAKNTVYLQMNSLKPEDTAVYYCAADRTDTSNYWGQGTQVTVSS”, “high polyreactivity”.
In the case of “QVQLVESGGGLVQAGGSLRLSCAASGRTLGHNAMGWYRPAPGKERELVAAITSRGGTTYADSVKGRFTISRDNAKKTVYLQMNSLKPEETAVYYCAARVSGSRKYYYWGQGTQVTVSS”, the “polyreactivity (PSR sort gate)” value is listed as “high polyreactivity”.

Values taken from the nanobody polyreactivity screen of Harvey et al. (2022).
